PMC1807978

Assays:
Test in all cases: EMSA
[1] = biological target: 4cFH (4cZf-M.HpaII F35H) (synthetic zinc finger; prokaryotic Mtase) (UniProt P15446)
[2] = biological target: 4bFH (4bZf-M.HpaII F35H) (synthetic zinc finger; prokaryotic Mtase) (UniProt P15446)
[3] = biological target: T1, M.HpaII wild type (no zinc finger) (UniProt P15446)
T1 sequence: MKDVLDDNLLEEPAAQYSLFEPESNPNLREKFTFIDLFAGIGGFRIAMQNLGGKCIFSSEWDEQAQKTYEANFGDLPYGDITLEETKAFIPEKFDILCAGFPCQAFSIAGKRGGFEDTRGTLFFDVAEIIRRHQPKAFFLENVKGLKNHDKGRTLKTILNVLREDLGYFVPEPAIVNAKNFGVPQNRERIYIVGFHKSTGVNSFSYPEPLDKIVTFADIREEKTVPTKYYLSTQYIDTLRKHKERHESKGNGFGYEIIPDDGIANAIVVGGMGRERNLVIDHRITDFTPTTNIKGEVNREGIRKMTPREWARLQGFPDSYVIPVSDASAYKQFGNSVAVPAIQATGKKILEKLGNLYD

Sequence: TGGCCACGCCACTCCCCAGGCTCCATTCCAGGCCGGCGCAATGCTAGACTCGACGCGGCGCTCGTTGCCA (double strand) [Tb/c]
- Kd [1]: 3 nM
- Kd [2]: 38 nM
- Kd [3]: 170 nM
